Test results published in PMC4409382, “Structural Analysis of the 14-3-3ζ/Chibby Interaction Involved in Wnt/β-Catenin Signaling” (PLoS ONE, 2015).
Numbering of substitutions follows the chain as printed. Numbers in names are those of the source. Square brackets hold non-standard residues; d marks the D form. Ends that are not written are not given here. pS = N[C@@H](COP(=O)(O)O)C(=O)O

T1: 14-3-3ζΔC12 (human, UniProt P63104 1-233)
T1 construct: N-terminal glycine retained after TEV cleavage of the His tag; 14-3-3ζ, human, full-length construct with the 12 C-terminal residues deleted; Unlabelled for ITC; 15N, 13C, 2H labelled for the NMR titrations; also called 14-3-3ζ with the C-terminal 12 residues removed; source: E. coli BL21 (DE3) pLysS, purified (Ni Sepharose, TEV cleavage, second Ni Sepharose pass); not shown: His tag, N-terminal, …
T1 sequence: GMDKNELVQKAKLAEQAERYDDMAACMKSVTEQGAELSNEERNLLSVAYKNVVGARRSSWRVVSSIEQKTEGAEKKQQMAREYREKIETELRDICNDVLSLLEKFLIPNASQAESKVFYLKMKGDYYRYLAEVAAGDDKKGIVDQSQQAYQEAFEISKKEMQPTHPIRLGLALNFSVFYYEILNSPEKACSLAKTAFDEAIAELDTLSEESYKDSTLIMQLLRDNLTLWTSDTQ

T2: 14-3-3ζ K49A (human, UniProt P63104 1-245, K49A)
T2 construct: N-terminal glycine retained after TEV cleavage of the His tag; 14-3-3ζ, human, with the K49A mutation introduced into 14-3-3ζ; source: purified by Ni Sepharose with TEV cleavage as all 14-3-3ζ constructs; not shown: His tag, N-terminal, cleaved
T2 sequence: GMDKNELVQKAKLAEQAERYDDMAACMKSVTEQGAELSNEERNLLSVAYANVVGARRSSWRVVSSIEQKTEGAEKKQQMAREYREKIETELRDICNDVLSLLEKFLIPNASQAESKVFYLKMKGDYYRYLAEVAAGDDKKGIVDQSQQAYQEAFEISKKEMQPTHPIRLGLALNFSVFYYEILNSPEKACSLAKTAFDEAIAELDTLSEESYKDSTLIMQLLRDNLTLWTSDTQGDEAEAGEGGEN

T3: 14-3-3ζ (human, UniProt P63104 1-245)
T3 construct: N-terminal glycine retained after TEV cleavage of the His tag; 14-3-3 zeta, human, ORF purchased from GeneCopoeia, full-length construct; Dimer (~56 kDa); the stoichiometry n counts on the 14-3-3 monomer; also called full-length 14-3-3ζ; source: E. coli BL21 (DE3) pLysS, purified (Ni Sepharose, TEV cleavage, second Ni Sepharose pass); not shown: His tag, N-terminal, cleaved
T3 sequence: T2 sequence with A50K

T4: 14-3-3ζΔC12 (human, UniProt P63104 1-233)
T4 construct: N-terminal glycine retained after TEV cleavage of the His tag; 14-3-3 zeta, human, full-length 14-3-3ζ with the 12 C-terminal residues deleted; source: E. coli BL21 (DE3) pLysS, purified (Ni Sepharose, TEV cleavage, second Ni Sepharose pass); not shown: His tag, N-terminal, cleaved
T4 sequence: T1 sequence

T5: 14-3-3ζ K49A (human, UniProt P63104 1-245, K49A)
T5 construct: N-terminal glycine retained after TEV cleavage of the His tag; 14-3-3 zeta, human, with the K49A mutation introduced into 14-3-3ζ (the full-length construct); they say that all 14-3-3ζ constructs were purified in the same way; source: E. coli, purified (Ni Sepharose, TEV cleavage, second Ni Sepharose pass); not shown: His tag, N-terminal, cleaved
T5 sequence: T2 sequence

T6: Chibby 7-mer S22P (Homo sapiens, UniProt Q9Y3M2)
T6 chain: RKSASLP

T7: Chibby 18-mer (Homo sapiens, UniProt Q9Y3M2)
T7 chain: KTPPRKSA[pS]LSNLHSLDR

T8: Chibby 18-mer L24A (Homo sapiens, UniProt Q9Y3M2)
T8 chain: KTPPRKSASLSNAHSLDR

T9: Chibby 13-mer S22P (Homo sapiens, UniProt Q9Y3M2)
T9 chain: KTPPRKSASLPNL

T10: Chibby 11-mer (Homo sapiens, UniProt Q9Y3M2)
T10 chain: H-KTPPRKSA[pS]LS-NH2

T11: Chibby 13-mer (Homo sapiens, UniProt Q9Y3M2)
T11 chain: KTPPRKSA[pS]LSNL

T12: Chibby 7-mer (Homo sapiens, UniProt Q9Y3M2)
T12 chain: Ac-RKSA[pS]LS-NH2

B1: pCby 18-mer (peptide)
peptide: KTPPRKSA[pS]LSNLHSLDR
notes: Chibby (Cby), human, residues 12-29; free NH2 and COOH ends; also called Cby 18-mer WT; WT Cby 18-mer; source: synthetic peptide, bought: GenScript USA Inc
B2: pCby S22P 18-mer (peptide)
peptide: KTPPRKSA[pS]LPNLHSLDR
notes: Chibby (Cby), human, residues 12-29 with S22P; free NH2 and COOH ends; also called Cby 18-mer S22P; source: synthetic peptide, bought: TUFTS University Core Facility
B3: pCby 11-mer (peptide)
peptide: KTPPRKSA[pS]LS-NH2
modifications: N-terminus assumed
SMILES: CC(C)C[C@H](NC(=O)[C@H](COP(=O)(O)O)NC(=O)[C@H](C)NC(=O)[C@H](CO)NC(=O)[C@H](CCCCN)NC(=O)[C@H](CCCNC(=N)N)NC(=O)[C@@H]1CCCN1C(=O)[C@@H]1CCCN1C(=O)[C@@H](NC(=O)[C@@H](N)CCCCN)[C@@H](C)O)C(=O)N[C@@H](CO)C(N)=O
notes: Chibby (Cby), human, residues 12-22; source: synthetic peptide, bought: TUFTS University Core Facility
B4: pCby 18-mer (peptide)
peptide: KTPPRKSA[pS]LSNLHSLDR
notes: Chibby (Cby), human, residues 12-29; also called Cby 18-mer WT; source: synthetic peptide, bought: GenScript USA Inc
B5: Cby 18-mer L24A (peptide)
peptide: KTPPRKSA[pS]LSNAHSLDR
notes: Chibby (Cby), human, residues 12-29 with L24A; also called Cby L24A 18-mer; source: synthetic peptide, bought (GenScript USA Inc. or TUFTS University Core Facility)
B6: pCby S22P 18-mer (peptide)
peptide: KTPPRKSA[pS]LPNLHSLDR
notes: Chibby (Cby), human, residues 12-29 with S22P; also called Cby 18-mer S22P; source: synthetic peptide, bought: TUFTS University Core Facility
B7: 14-3-3ζ (human, full-length) (natural protein)
chain: T2 sequence with A50K
notes: N-terminal glycine retained after TEV cleavage of the His tag; 14-3-3ζ, human, ORF bought from GeneCopoeia, in Gateway pDEST17; full-length; Dimer in the crystal; the ITC stoichiometry counts on the 14-3-3 monomer; also called WT 14-3-3ζ; source: E. coli BL21 (DE3) pLysS, purified (Ni Sepharose, TEV cleavage, second Ni Sepharose pass); not shown: His tag, N-terminal, cleaved
B8: pCby 13-mer (peptide)
peptide: KTPPRKSA[pS]LSNL
notes: Chibby (Cby), human, residues 12-24; source: synthetic peptide, bought: GenScript USA Inc
B9: pCby S22P 13-mer (peptide)
peptide: KTPPRKSA[pS]LPNL
notes: Chibby (Cby), human, residues 12-24 with S22P; also called Cby 13-mer S22P; source: synthetic peptide, bought: TUFTS University Core Facility
B10: pCby 13-mer (peptide)
peptide: KTPPRKSA[pS]LSNL
notes: Chibby (Cby), human, residues 12-24; free NH2 and COOH ends; also called phosphorylated Cby peptide; source: synthetic peptide, bought: GenScript USA Inc
B11: 14-3-3ζ (protein)
chain: MDKNELVQKAKLAEQAERYDDMAACMKSVTEQGAELSNEERNLLSVAYKNVVGARRSSWRVVSSIEQKTEGAEKKQQMAREYREKIETELRDICNDVLSLLEKFLIPNASQAESKVFYLKMKGDYYRYLAEVAAGDDKKGIVDQSQQAYQEAFEISKKEMQPTHPIRLGLALNFSVFYYEILNSPEKACSLAKTAFDEAIAELDTLSEESYKDSTLIMQLLRDNLTLWTSDTQGDEAEAGEGGEN
B12: pCby 7-mer (peptide)
peptide: Ac-RKSA[pS]LS-NH2
SMILES: CC(=O)N[C@@H](CCCNC(=N)N)C(=O)N[C@@H](CCCCN)C(=O)N[C@@H](CO)C(=O)N[C@@H](C)C(=O)N[C@@H](COP(=O)(O)O)C(=O)N[C@@H](CC(C)C)C(=O)N[C@@H](CO)C(N)=O
notes: Chibby (Cby), human, residues 16-22; also called 16RKSA(pS)LS22; source: synthetic peptide, bought: TUFTS University Core Facility
B13: pCby S22P 7-mer (peptide)
peptide: Ac-RKSA[pS]LP-NH2
SMILES: CC(=O)N[C@@H](CCCNC(=N)N)C(=O)N[C@@H](CCCCN)C(=O)N[C@@H](CO)C(=O)N[C@@H](C)C(=O)N[C@@H](COP(=O)(O)O)C(=O)N[C@@H](CC(C)C)C(=O)N1CCC[C@H]1C(N)=O
notes: Chibby (Cby), human, residues 16-22 with S22P; also called Cby 7-mer S22P; 16RKSA(pS)LP22; source: synthetic peptide, bought: TUFTS University Core Facility

Experiments:
[1] = molecular target: B7; assay: ITC; VP-ITC, 25°C; ~1-2 mM peptide titrated in 5 uL aliquots into ~100-200 uM 14-3-3ζ in the cell; 50 mM sodium phosphate, 100 mM NaCl, 1 mM DTT, pH 6.8; one-site model; in duplicate; conditions: both partners purified
14-3-3ζΔC12 [2] = molecular target: T1, 14-3-3ζΔC12; assay: as above; conditions: both partners purified
14-3-3ζ K49A [3] = molecular target: T2, 14-3-3ζ K49A; assay: as above; conditions: both partners purified
14-3-3ζ = molecular target: T3, 14-3-3ζ; assay: ITC; duplicate set of titrations; 5 uL aliquots of ~1-2 mM peptide titrated into the 1.4 mL cell with ~100-200 uM 14-3-3ζ; 25 °C; 50 mM sodium phosphate, 100 mM NaCl, 1 mM DTT, pH 6.8; one-site model; n per 14-3-3 monomer; conditions: both partners purified
14-3-3ζΔC12 [4] = molecular target: T4, 14-3-3ζΔC12; assay: as above; conditions: both partners purified
14-3-3ζ K49A [5] = molecular target: T5, 14-3-3ζ K49A; assay: as above; conditions: both partners purified
[6] = molecular target: the molecule itself; assay: crystal structure; 14-3-3ζ (10 mg/mL) co-crystallised with the phosphorylated Cby 18-mer (protein:peptide 1:4), 20 mM Tris pH 7.5, 100 mM NaCl; reservoir 200 mM NH4HCO2, 16-20% PEG 3350; 4°C; 2.41 Å
Chibby 7-mer S22P = molecular target: T6, Chibby 7-mer S22P; assay: ITC
Chibby 18-mer = molecular target: T7, Chibby 18-mer; assay: ITC
Chibby 18-mer L24A = molecular target: T8, Chibby 18-mer L24A; assay: ITC
Chibby 13-mer S22P = molecular target: T9, Chibby 13-mer S22P; assay: ITC
Chibby 11-mer = molecular target: T10, Chibby 11-mer; assay: ITC
Chibby 13-mer = molecular target: T11, Chibby 13-mer; assay: ITC
Chibby 7-mer = molecular target: T12, Chibby 7-mer; assay: ITC

Binder: B1
- Kd [1]: 4.6 µM
- dH [1]: -4.35 ± 0.05 kcal/mol
- stoichiometry N [1]: 0.96
- Kd (14-3-3ζΔC12 [2]): 6.8 µM
- dH (14-3-3ζΔC12 [2]): -3.35 ± 0.06 kcal/mol
- stoichiometry N (14-3-3ζΔC12 [2]): 1.04
- Kd (14-3-3ζ K49A [3]): 3.8 µM
- dH (14-3-3ζ K49A [3]): -4.16 ± 0.05 kcal/mol
- stoichiometry N (14-3-3ζ K49A [3]): 1.01

Binder: B2
- Kd [1]: 0.36 µM
- dH [1]: -8.03 ± 0.02 kcal/mol
- stoichiometry N [1]: 1.05
- Kd (14-3-3ζ K49A [3]): 1.9 µM
- dH (14-3-3ζ K49A [3]): -7.13 ± 0.03 kcal/mol
- stoichiometry N (14-3-3ζ K49A [3]): 1.07

Binder: B3
- Kd (14-3-3ζ): 17.5 µM
- stoichiometry N (14-3-3ζ): 0.96

Binder: B4
- Kd (14-3-3ζΔC12 [4]): 8.5 µM
- stoichiometry N (14-3-3ζΔC12 [4]): 1.02
- Kd (14-3-3ζ K49A [5]): 5.5 µM
- stoichiometry N (14-3-3ζ K49A [5]): 1.07
- Kd (14-3-3ζ): 4.9 µM
- stoichiometry N (14-3-3ζ): 0.94

Binder: B5
- Kd (14-3-3ζ): 25 µM
- stoichiometry N (14-3-3ζ): 1.05

Binder: B6
- Kd (14-3-3ζ K49A [5]): 1.8 µM
- stoichiometry N (14-3-3ζ K49A [5]): 0.97
- Kd (14-3-3ζ): 0.38 µM
- stoichiometry N (14-3-3ζ): 1.08

Binder: B7
- binding result [6]: binds

Binder: B8
- Kd (14-3-3ζΔC12 [4]): 14.5 µM
- stoichiometry N (14-3-3ζΔC12 [4]): 1.06

Binder: B9
- Kd (14-3-3ζ): 1.3 µM
- stoichiometry N (14-3-3ζ): 1.02

Binder: B10
- Kd (14-3-3ζΔC12 [2]): 14.9 µM
- dH (14-3-3ζΔC12 [2]): -2.08 ± 0.03 kcal/mol
- stoichiometry N (14-3-3ζΔC12 [2]): 0.99

Binder: B11
- Kd (Chibby 7-mer S22P): ~3 µM
- Kd (Chibby 18-mer): ~5 µM
- Kd (Chibby 18-mer L24A): ~21 µM
- Kd (Chibby 13-mer S22P): ~1 µM
- Kd (Chibby 11-mer): ~18 µM
- Kd (Chibby 13-mer): ~15 µM
- Kd (Chibby 7-mer): ~44 µM

Binder: B12
- Kd (14-3-3ζ): 47.6 µM
- stoichiometry N (14-3-3ζ): 0.94

Binder: B13
- Kd (14-3-3ζ): 3.2 µM
- stoichiometry N (14-3-3ζ): 1.02
